Assay: yeast display, Sf9 membrane polyspecificity reagent, FACS + sequencing; frameworks hold sequencing errors
Outline: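 Synthetic nanobody libraries on Saccharomyces cerevisiae BJ5465 were galactose-induced for 36–48 hours, stained 1 hour at 4 °C with 10% biotinylated, detergent-solubilized Sf9 membrane reagent and enriched on streptavidin microbeads. FACS then separated cells into low and high (top ~1%) gates by anti-HA (expression) and streptavidin (reagent binding) fluorescence. Genes were colony-PCR amplified, MiSeq 2 × 250 sequenced and CDR-length filtered. A clone's polyreactivity label is that of its gate of origin.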

| Sequence | polyreactivity (PSR sort gate) |
| --- | --- |
| QVQLVESGGGLVQAGGSLRLSCAASGRIFSSYVMGLYRQAPGKERELVAAIRWSGGSTYYADSVKGRFTISRDNAKNTVYLQMNSLKPEDTAVYYCAAEVYRYYATGYGYWGQGTQVTVSS | high polyreactivity |
| QVQLVESGGGLVQAGGSLRLSCAASGFTFGRYAMGWYRQAPGKERELVAGITWSGGSTSYADSVKGRFTISRDNAKNTVYLQMNSLKPEDTAVYYCATRARYTRVHGRRYAYDYWGQGTQVTVSS | high polyreactivity |
| QVQLVESGGGLVQAGGSLRLSCAASGSIFIGYAMGWYRQSPGKERELVAAINDSGDRTYYADSVKGRFTISRDNAKNTVYLQMNSLKPEDTAVYYCAADLVSLDPEYDYWGQGTQVTVSS | low polyreactivity |
| HVQLVESGVGLVQAGGSLRLSCAASGSTFDGYLMGWYRQAPGKERELVAAISRSGGSTYYADSVKGRFTIARDNAKNTVYLQMNSLKPEDTAVYYCAARNSPGLPGDYWGQGTQVTVSS | high polyreactivity |
| QVQLVESGGGIVQAGGSLRLICAASGFIFVTYAMGWYRQAPGKETELVAAITNSGGTTYYADSVKGRFTISRDNAKNTVYLQMNSLKPEDTAVYYCAADVWTPYLISLKSGYDYWGQGTQVTVSS | low polyreactivity |
| QVQLVESGGGLVQAGGSLRLSSAASGSIFRNAMGWYRQAPGKERELVAGINGSGGSTYYADSVKGRFTISRDNAKNTVYLQMNSLKPEDTAVYYCAAGTSKPTPIYGYWGQGTQVTVSS | low polyreactivity |
| QVQLVESVGGLVQAGGSLRLSCAASGSIFGFYAMGWYRQAPGKERELDAVISSDASKNYADSVKGRFTISRDNAKNTVYLQMKSLKPEDTAVYYCNAVAYGYHFFSYYSVDYWGQGTQVTVSS | low polyreactivity |
| QVQLVESGGGLVQAGGSLRLSCAASGRIFRGYGMAWYRQAPGKERELVAAISRGGNTDYADSVKGRFTISRDNANNTVYLQMNSLKPEETAVYYCAVGYVSYRKLYLYNSWGQGTQVTVSS | high polyreactivity |
| QVQLVESGGGLVQAGGSLRLSCAASGSIFPYYAMGWYRQAPGKERELVATISNSGGSTYYADSVKGRFTISRDNAKNTVYLQMNSLKPEDTAVYYCAADRGSYPYTGDYWGQGTQVNVSS | low polyreactivity |
| QVQLVESGGGLVQAGGSLRLSCAASGSTFLRNVMGWYRQAPGKERELVAAISSRGGSTHYADSVKGRFTISRDNAKNTVYLQMNSLKPEDTAVYYCNSERTAAQYVRAAYDYWGQGTQVTVSS | low polyreactivity |
| QVQLVESGGGLVQAGGRLRLSCAASVRIFRVYAMGWYRQEPGKERELVAAISWSGGRTYYADSVKGRFTISRDNAKNTVYLQMNSLKPEHTAVYYCAAVSGYALGYDYWGQGTQVTVSS | high polyreactivity |
| QVQLVESGGGLVQAGGSLRLSCAASGIIFKLYAMGWYRQAPGKERELVAAITYRGGTTYYADSVKGRFTISRDNAKNTVYLQMNSLKPEDTAVYYCAADNTFRDDYFLYYLFNYNYWGQGTQVTVSS | low polyreactivity |
| QVQLVESGGGLVQAGGSLRLSCAASGRTFQRNAMGLYRQEPGKERELVAAISTRGGSTYYADSVKGRFTISRDNAKNTVYLQMNSLKPEDTAVYYCAKDPTLTRGYKEGGGYDYLGQGTQVTVSS | high polyreactivity |
| QVQLVESGGGLVQAGGSLRLSCAASGSTSQSNAMGWYRQAPGKERELVAAISWSGTSTYYADSVKGRFTISRDNAKNTVYLQMNSLNPEDSAVYYCAADYIFDYDYWGQGTQVTVSS | low polyreactivity |
| QVHLVESGGGLVQAGRSLRLSCAASGITFVKYAMGCYIQAPGKEMELVATISNSGGSTYYSDSVKGRFTISRDNAKNSVYLQMNSLKPEETAVYYCNALYLVYCDDSSPSLVSEYGYWGQGTQVTVSS | low polyreactivity |
| QVQLVESVGGLVQAGGSLRLSCAASGYTFPDYAMGWYRQAPGKEREFVATISWSGTSTYYADSVKGRFTISRDNAKNTVYLQMNSLKPEDTAVDYCNASAYYPPSSSRYDYWGQGTQVTVSS | low polyreactivity |
| QVQLVESGGGLVQAGGSLRLSCAASGSTFYHNVKGWYRQAPWKERELVASIDTGDSTNYADTVKGRFSISRDNAKKTVYLQMNSLKPEDTAVYYCNADSYPALNKRGYEYWGQGTQVTVSS | low polyreactivity |
| QVQLVESGGGLVQAGGSLRLSCAASGFIFYRYAMGWYRQAPGKERELVAAISSSGGSTYYADSVKGRFTISRDNAKNTVYLQMNSLKPEDTAVYYCAAEPSGKRSKFYYLGQGTQVTVSS | high polyreactivity |
| QVQLVESGGGLVQAGGSLRLSCAASGRIFELNARGWYSQAPGKERELVAVISSGGNTHYADSVKGRFTISRDNAKNTVYLQMNSLNPEDTAVYYCAAVASKHWGRDYWGQGTQVTVSS | low polyreactivity |
| QVQLVDSGGGLVQAGGSLRLSCAASGSIFDPNAMGWYRQAPGKERELVADIDSSDGSTYYADSVKGRFTISRDNAKNTVYLQMNSLKPEDTAVYYCNALSALAVEDGYWGQGTQVTVSS | low polyreactivity |
| QVQLVESGGGLVQAGGSLRLSCAASGRTFDFYAMGWYRQAPGKERELVAAITFSTGSTTYADSVKGRFTISRDNAKNTVYLQMNSLKPEDTAVYYCGADGDGWWWSYVDRYDYWGQGTQVTVSS | low polyreactivity |
| QVQLVESGGGLVQAGGSLRLSCAASGSILLRYAMGWYRQAPGKERELVAAIRTIGASTYYADSVKGRFTISRDNAKNTVYLQMNSLKPEDTAVYYCNAYLAEVLPLGKGRLYDYWGQGTQVTVSS | low polyreactivity |

| Sequence | polyreactivity (PSR sort gate) |
| --- | --- |
| QVQLVESGGGLVQAGGSLRLSCSASGFTFWVNAMGWYRQAPGKERELVAAISRRGGRTYYADSVKGRYTISRDNAKNTVYLQMNSLKPEDTAVYYCNKEDVGCSESDYWGQGTQVTVSS | high polyreactivity |
| QVQLVESGGGLVQAGGSLRLSCAASGFTFHWNAMGWYRPAPGKERELVAVITSGGSTNYADSVKGRFTISRDNAKNTVYLQMNSLKPEDTAVYYCAKEDGYSQLKTTFDEPGYGSWGQGTQVTVSS | low polyreactivity |
| QVQLVESGGALVQAGGSLRLSCAASGIIFRYNAMGWYRQAPGKDREVVAAISWSTGSTYYADSVKGRFTISRDNAKNTVYLQMNSLKPEDTAVYYCNAYWLRHIYNYWGQGSQVTVSS | high polyreactivity |
| QVQLVESGGGLVQARGSLRVSCAASGSTFGRYAMGWYRQAPGKDRELVAAITGSGGSTYYADSVKGRFTISRDNAKNTVYLHMNSLKPEDTAVYYCAAPVDYRRYEYEYWGQGTQVTVSS | low polyreactivity |
| QVQLVESGGGLVQAGGSLRLSCAASGGILVGYDMGWYRQAPGKERELVAAINYSGGSTNYADSVKGRFTISRDNAKNTVYLQMNSLKTEDTALYYCAARSTARYGYWGQGTQVTVSS | low polyreactivity |
| QVQLVESGGGLVQAGGSLRLSCAASGSTFYGYAMGWYRQAPGKERELVAGITSAGSTYYADSVKGRFTISRDNAKNTVYLQMNSLKPEDTAVYYCAYHGAGYYYWGQGTQVTVSS | high polyreactivity |
| QVQLVDSGGGLVQAGGSLRLSCAASGSIFDSYVKGWYRQAPGKERELVAAITYSGGSTYADSVKGRFTISRDNAKNTVYLQMNSLKPEDTAVYYCAAASYFYMFLLEDYWGQGTHVTVSS | low polyreactivity |
| QVQLVESGGGLVQAGGSLRLSCAASGSTFGRYAMGWYRQAPGKERELVAAISRRGASTYYADSVKGRFTISRDNAKNTVYLQMNSLKPEDTAVYYCATGYPIDLGREFDYWGQGIQVTVSS | high polyreactivity |
| QVQLQESGGGLLQAGGTLRLSCAASGSIFGYSGMGWYRQAPGKERELVAGIDYGTITNYADSVKGRFTISRDNAKNTVYLQKYSLKPADTAVYYCATDIHSVHNHRDKHVYDYWGQGTQVTVSS | low polyreactivity |
| QVQLVESGGGLVQAGGSLRLICAASGSIFWAYAMGWYRQAPGKERELVAAISSSGGRTYYADSVKGRFTISRDNAKNTVYFQMNSLNPEDTAVYYCAARSYSGYSPTFDYWGQGTQVTVSS | high polyreactivity |
| QVQLVESGGGLVQAGGSLRLSCAASGSIFARYALGWYRQAPGKERELVDAITRSGVSTYSADSVKGRFTISRDNAKNTVYLQMNSLKPEDTAVYYCNADYPIRSSPYGYYYWGQGTQVTVSS | high polyreactivity |
| QVQLVESGGGLVQAGGSLRLSCAASGRTFWNYAMGWYRQAPGKERELVAAISSSGGTTYYADSVKGRFTISRDNAKNTVYLQMNSLKPEDTAVYYCAATGVSKPQRSFGYWGQGTQVTVSS | low polyreactivity |
| QVQLVESGGGLVQAGGSLRLSCAASGSTFVVYAMGWYRQAPGKERELVASISSGDSTTYADSVKGRFTISRDNAKNTVYLQMNSLKPEDTAVYYCNADYAYYLDVYSPYDSWGQGTQVTVSS | low polyreactivity |
| QDQRVESGGGLVQAGGSLRLSCAASVRTVNFNVMGWYSQARGKERELVAAISKSTGSTFYADSVKGRFTMSRDNAKNTGYLQKNSLKPEDTAVYYCIAVRCYGSGRGYGYCGQGTQVTVSS | high polyreactivity |
| QVQLVESGGGLVQAGGSLRLSCAASGRTFGWTVMGWYRPAPGKDRELVAAISGSGGSTYYADSVKGRFTISRDNAKNTVYLQMNSLKPEDTAVYYCAALYGPAREYDYWGQGTQVTVSS | low polyreactivity |
| QVQLVESGGGLVQAGGSLRLSCAASGRIFWGNAMGWYRQAPGKEWELVAAITRRGGTTFYADSVKGRFTISRDNAKNTVYLQMNSLKPEDTAVYYCAARRYGQYDGYDSWGQGTQVTVSS | high polyreactivity |
| QVQLVESGGGLVQAGGSLRLSCAASGRTFPVYAMGWYRQAPGKERELVATIRRRDGSTYADSVKGRFTISRDNAKNTVYLQMNSLKPEDTAVYYCNAAYSQATPWYYAWYDYCGQGTQVTVSS | high polyreactivity |
| QVQLVESGGCLVQAGGSLRLSCAASGITFVSNVMGWYRQATGKEREFVAAITGRGDTTYADSVKGRFTISRDNAKNTVYLQMNSLKPEDTAVYYCAAEYSVPYRGWDGYEYWGQGTQVTVSS | low polyreactivity |
| QVQLVESGGGLVQAGGSLRLSCAASGSTFLYYAMGWYIQAPGKERELVAAISRSGGNTYYADSVKGRFTISRDNAKNTVYLQMNSLKPEDTAVDYCAKSPPGRGIRRLYYYWGQGTQVTVSS | high polyreactivity |
| QVQLVESGGGLVQAGGSLRLSSAANGMIYVSYAMGWYRQAPGKERELVATITRSGGSTYYADSVKGRFTISRDNAKNTVYLQMNSLKPEDTAVYYCARYWRTSGVRMDYWGQGTQVTVSS | high polyreactivity |
| QVQLVESGGGLVQAGGSLRLSCAASGSTFVSNAMGWYRPAPGKERELVAAISSSGGRTSYADSVKGRFTISRDNAKNTVYLQMNSLKPEDTAVYYCAARFKSVDYVQYYYWGQGTQVTVSS | low polyreactivity |

Source: the nanobody polyreactivity screen of Harvey et al. (2022)
